Results taken from paper PMC12041213 (Nature Communications, 2025).

Experiments:
Test in all cases: co-IP
[1] = target: T1, His-Ash1-2SA (Ash1-S149A S388A) (S. cerevisiae, UniProt P34233 1-588, S149A | S388A)
T1 sequence (looked up): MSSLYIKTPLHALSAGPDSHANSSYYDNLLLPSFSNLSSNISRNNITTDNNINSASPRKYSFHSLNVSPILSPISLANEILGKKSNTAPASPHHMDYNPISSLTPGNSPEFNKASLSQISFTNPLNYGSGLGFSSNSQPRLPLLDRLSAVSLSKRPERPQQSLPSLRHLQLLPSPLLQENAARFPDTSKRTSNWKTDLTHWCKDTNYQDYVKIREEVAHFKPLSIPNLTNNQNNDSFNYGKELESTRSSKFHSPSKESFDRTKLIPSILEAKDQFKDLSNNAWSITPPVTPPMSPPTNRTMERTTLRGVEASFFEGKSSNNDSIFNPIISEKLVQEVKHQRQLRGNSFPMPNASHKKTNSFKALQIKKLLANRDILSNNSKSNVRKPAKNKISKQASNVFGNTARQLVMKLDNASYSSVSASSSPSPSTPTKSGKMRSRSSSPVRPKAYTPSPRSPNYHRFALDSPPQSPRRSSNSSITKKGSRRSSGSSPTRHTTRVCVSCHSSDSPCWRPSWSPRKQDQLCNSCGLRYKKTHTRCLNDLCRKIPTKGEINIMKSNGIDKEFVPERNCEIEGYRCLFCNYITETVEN

[2] = target: T2, His-Ash1 phosphorylated by Tpk2-CBP (S. cerevisiae, UniProt P34233 1-588, phosphorylated by Tpk2-CBP at S149 and S388)
T2 sequence (looked up): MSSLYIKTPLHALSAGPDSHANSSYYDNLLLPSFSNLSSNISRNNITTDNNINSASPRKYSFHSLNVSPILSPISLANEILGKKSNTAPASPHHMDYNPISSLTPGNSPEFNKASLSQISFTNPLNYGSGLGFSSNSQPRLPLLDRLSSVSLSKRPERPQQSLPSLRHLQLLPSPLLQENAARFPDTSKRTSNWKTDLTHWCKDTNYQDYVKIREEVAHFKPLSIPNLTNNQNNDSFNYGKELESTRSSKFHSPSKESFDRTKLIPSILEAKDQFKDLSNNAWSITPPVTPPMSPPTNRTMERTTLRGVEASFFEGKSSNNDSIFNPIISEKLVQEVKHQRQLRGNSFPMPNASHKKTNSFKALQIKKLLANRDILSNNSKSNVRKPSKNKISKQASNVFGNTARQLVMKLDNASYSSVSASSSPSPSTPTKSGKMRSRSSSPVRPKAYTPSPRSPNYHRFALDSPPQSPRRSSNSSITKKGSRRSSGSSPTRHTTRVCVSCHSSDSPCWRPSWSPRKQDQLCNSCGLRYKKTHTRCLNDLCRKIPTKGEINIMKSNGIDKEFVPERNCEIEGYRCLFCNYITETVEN

[3] = target: T3, His-Ash1 (purified recombinant) (S. cerevisiae, UniProt P34233 1-588)
T3 sequence (looked up): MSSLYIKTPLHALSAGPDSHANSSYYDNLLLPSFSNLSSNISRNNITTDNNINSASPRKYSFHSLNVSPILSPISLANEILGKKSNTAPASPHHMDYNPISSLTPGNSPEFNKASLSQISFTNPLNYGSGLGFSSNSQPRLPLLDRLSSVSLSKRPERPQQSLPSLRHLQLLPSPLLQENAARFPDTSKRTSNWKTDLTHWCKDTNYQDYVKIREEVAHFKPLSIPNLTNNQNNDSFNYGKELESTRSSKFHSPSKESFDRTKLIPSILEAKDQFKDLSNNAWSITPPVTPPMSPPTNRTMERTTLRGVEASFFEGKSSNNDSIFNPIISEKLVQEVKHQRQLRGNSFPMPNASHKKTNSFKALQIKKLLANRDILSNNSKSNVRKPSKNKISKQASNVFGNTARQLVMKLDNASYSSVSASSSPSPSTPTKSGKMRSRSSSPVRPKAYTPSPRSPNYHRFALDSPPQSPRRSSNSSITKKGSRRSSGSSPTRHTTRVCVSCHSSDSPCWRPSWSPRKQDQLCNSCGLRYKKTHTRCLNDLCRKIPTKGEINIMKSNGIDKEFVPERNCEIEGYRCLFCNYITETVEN

Measured: binding result

B1: Ubp8-FLAG (purified recombinant) (enzyme, S. cerevisiae, UniProt P50102 1-471, looked up)
chain: MSICPHIQQVFQNEKSKDGVLKTCNAARYILNHSVPKEKFLNTMKCGTCHEINSGATFMCLQCGFCGCWNHSHFLSHSKQIGHIFGINSNNGLLFCFKCEDYIGNIDLINDAILAKYWDDVCTKTMVPSMERRDGLSGLINMGSTCFMSSILQCLIHNPYFIRHSMSQIHSNNCKVRSPDKCFSCALDKIVHELYGALNTKQASSSSTSTNRQTGFIYLLTCAWKINQNLAGYSQQDAHEFWQFIINQIHQSYVLDLPNAKEVSRANNKQCECIVHTVFEGSLESSIVCPGCQNNSKTTIDPFLDLSLDIKDKKKLYECLDSFHKKEQLKDFNYHCGECNSTQDAIKQLGIHKLPSVLVLQLKRFEHLLNGSNRKLDDFIEFPTYLNMKNYCSTKEKDKHSENGKVPDIIYELIGIVSHKGTVNEGHYIAFCKISGGQWFKFNDSMVSSISQEEVLKEQAYLLFYTIRQVN
binds: all assays above
